According to US20110293610A1 (published 2011):
Substitutions are numbered along the chain they refer to.

B1: I031F09 (scFv)
scFv: QVQLVQSGAEVKKPGASVKVSCTVSGDSFSRHGISWVRQAPGQGLEWMGWISVYNGDTKYAQKVQGRVTMTTDTSTNTVYMELRRLRSDDTAVYYCARDEGRDLLTGYYWPNFFDSWGRGTLVTVSSGGGGSGGGGSGGGGSALSYVLTQPPSASGTPGQRVTISCSGSRPNIGGNTVNWYQQLPGAAPKLLIYSNSQRPSGVPDRFSGSKYGTSASLAISGLQSDDEADYYCAAWDDSLTGPVFGGGTKLTVLG
B2: I031G11 (scFv)
scFv: B1 scFv with A154V, R161K
B3: I026E03 (scFv)
scFv: EVQLVQSGGEVKRPGASVKVSCKASGYTFSRYGISWVRQAPGQGLEWMGWISAYNGKTSFAEKFQGRVTLTTDTSTTTVDMELRNLRSDDTAVYYCARTDYDILTGYPMGYFDPWGKGTLVTVSSGGGGSGGGGSGGGGSALSSELTQDPAVSVALGQTVKITCQGDSLRSFYAAWYQQKPGQAPILVISGKNNRPSGIPDRFSGSSSGNTASLTITGAQAEDEADYYCNSRDTSGNHYVFGAGTKLTVLG
B4: I016H07 (scFv)
scFv: GVQLVQSGAEVKKPGASVKVSCKASGYTFTHYAINWLRQAPGQRPEWMGTINTGNGNTKYSQNFQGRLTITRDTSASTVNMELSSLRSEDTAVYYCAGGYHDPLTSYNYNWFDPWGQGTMVTVSSGGGGSGGGGSGGGGSSELTQDPAVSVALGQTVRITCQGDSLRSYYTNWFQQKPGQAPLLVVYAKNKRPSGIPDRFSGSSSGNTASLTITGAQAEDEADYYCHSRDSSGNHVLFGGGTKLTVLG
B5: I017D10 (scFv)
scFv: RVQLVQSGAEVKKPGASVKVSCKASGYTFTSDHISWVRQAPGQGLEWMGWISPHHGKTNYAQKLQGRVTMTTDTSTSTAYMELRSLRSDDTAVYYCARVQMDSEYYDLLTGINVGPYYFDYWGKGTLVTVSSGGGGSGGGGSGGGGSSELTQDPAVSVALGQTVRITCQGDSLRSYYASWYQQKPGQAPVLVIYGKNNRPSGIPDRFSGSSSGNTASLTITGAQAEDEADYYCNSRDSSGNHVVFGGGTKLTVLG
B6: I016F02 (scFv)
scFv: GVQLVESGAEVKKPGASVKVSCRTSGYTFTSNSFSWVRQAPGQGLEWMGGIIPIFGTANYAQKLQGRVTITADELTRTVYMDLSSLRSEDTAVYYCATGMGDHYGMDVWGRGTLVTVSSGGGGSGGGGSGGGGSQSVLTQPASVSGSPGQSITISCTGTSSDVGGYNYVSWYQQHPGKAPKLMIYEGSKRPSGVSNRFSGSKSGNTASLTISGLQAEDEADYYCSSYTTRSTRVFGGGTKLTVLG
B7: I051C04 (scFv)
scFv: QVQLQQSGAEVKKPGSSVKVSCRTSGGTFSNYGLSWVRQAPGQGLEWMGGVIPISSTIKYGQKFQDRLTIAADDLTNTTFMELSSLRPEDTAVYYCARAATTSQKHNKYAYYFYGMDVWGQGTMVTVSSGGGGSGGGGSGGGGSAQSALTQPASVSGSPGQSITISCTGTSSDVGGYNYVSWYQQHPGKAPKLMIYEVSNRPSGVSNRFSGSKSGNTASLTISGLQAEDEADYYCSSYTSSSTLVFGGGTKVTVLG
notes: also called 1051C04
B8: I029F11 (scFv)
scFv: QVQLVQSRAEVKRPGASVKVSCKASGYRFGSYGITWVRQAPGQGLEWMGWISTRYGDTKSAQKVEGRVTLTTDTSTSTAYMELRSLRSDDTAVYYCARDGSYDILTGYYIDNYMDVWGRGTLVTVSSGGGGSGGGGSGGGGSQSVLTQPPSASGTPGQRVTISCSGSSSNIGSNTVNWYQRLPGAAPQLLIYNNDQRPSGIPDRFSGSKSGTSGSLVISGLQSEDEADYYCASWDDSLNGRVFGGGTKLTVLG
B9: I050B11 (scFv)
scFv: QVQLVQSGVEVKKPGASVKVSCKASGYTFSNHGISWVRQAPGQGLEWVGWISGHDDSTKYAQKFQGRVTMTADTSTSTAYIELRSLKSDDTAVYYCARPFYDTLTSYVFQYFDHWGQGTMVTVSSGGGGSGGGGSGGGGSALETTLTQSPDTLSLSPGERATLSCRASQSVTRGWVAWYQQKPGQAPRLLMYGTSRRATGVPDRFSGSESGTDFTLTISRLEPEDFAVYYCQQYATSPRTFGQGTRLEIKR
B10: I050A12 (scFv)
scFv: EVQLVQSGAEVKKPGSSVKVSCKASGDTFSHYAINWVRQAPGQGLEWMGGIIPTFNAVKYAQKFQGRATITADGSTSTAYMELNSLRSEDTAVYYCATAPYDLLTHYFHYFDYWGQGTMVTVSSGGGGSGGGGSGGGGSALSSELTQDPAVSVTLGQTVRITCQGDSLRSYYPSWYQQKPGQAPVLVIYPKNIRPSGIPDRFSGSSSGNTASLTITGAQAEDEADYYCNSRASSGNHYVFATGTKLTVLG
B11: I037E07 (scFv)
scFv: QVQLVQSGAEVKKPGASVKVSCKASGYTFTNYGITWVRQAPGQGLEWMGWISAYNGNRNYAQKLQGRVTMTTDTSTSTAYMELRSLRSDDTAVYYCVRDGIDILLVPAALMDVWGRGTMVTVSSGGGGSGGGGSGGGGSQSVLTQPASVSGSPGQSITISCTGTSSDVGGYNYVSWYQQHPGKAPKLMIYEGSKRPSGVSNRFSGSKSGNTASLTISGLQAEDEADYYCSSYTTRSTRVFGGGTKLTVLG
B12: I037E12 (scFv)
scFv: B11 scFv with Q1E, R116K, M119L, S193N
B13: I031G10 (scFv)
scFv: QVQLVQSGAEVKKPGSSVKVSCRVSGGSFTDDSINWLRQAPGQGLEWVGGTIPLANRANYAQKFRDRVTITADELTATVFLELTSLRSDDTALYYCARSSPPKWYDALTGDSSYHSAMDVWGRGTLVTVSSGGGGSGGGGSGGGGSAQSVVTQPPSVSAAPGQKVTISCSGSTSNIGRNYVSWYQQLPGTATKLLIYDNNKRPSGIPDRFSGSKSGTSATLGITGLQTGDEADYYCGTWDSSLRIYVFGTGTKVTVLG
B14: I001C09 (scFv)
scFv: GVQLVQSGPEVKKPGASVKVSCTASGYTFTSYGVSWVRQAPGQGLEWIGWISAHNGQTKYAEKFQGRVTMTRNTSISTAYMELSSLRSEDTAVYYCARDGSYDILTGYYIDNYMDVWGKGTMVTVSSGGGGSGGGGSGGGGSSELTQDPAVSVALGQTVRITCQGDSLRSYYTNWFQQKPGQAPLLVVYAKNKRPSGIPDRFSGSSSGNTASLTITGAQAEDEADYYCHSRDSSGNHVLFGGGTKLTVLG
B15: I018D07 (scFv)
scFv: B14 scFv with K19I
B16: I018C10 (scFv)
scFv: B14 scFv with A92V
B17: I016E05 (scFv)
scFv: QVQLQQSGAEVKKPGASVKVSCKASGYTFTKYTMHWVRQAPGQGPEWMGWINGGSGDTKYSRKFQGRVTITKDTSASAAYMELSSLGSEDTALYYCARATYDPLTGYSFDGFDIWGKGTMVTVSSGGGGSGGGGSGGGGSQSALTQPASVSGSPGQSITISCTGTSSDVGGYNYVSWYQQHPGKAPKLMIYEGSKRPSGVSNRFSGSKSGNTASLTISGLQAEDEADYYCSSYTTRSTRVFGGGTKLTVLG
B18: I018H09 (scFv)
scFv: B17 scFv with A79T, A143V
B19: I018H08 (scFv)
scFv: B17 scFv with K19N, K117Q, A143V, V249I
notes: also called 1018H08
B20: I021B05 (scFv)
scFv: QVQQSGADVKKPGGSLRLSCAASGFTFSSYSMNWVRQAPGKGLEWVSSISSSSSYIYYADSVKGRFTISRDNAKNSLYLQMNSLRAEDTAVYYCAREGGNYDILTGYYIGNGAFDIWGRGTMVTVSSGGGGSGGGGSGGGGSQSVLTQPASVSGSPGQSITISCTGTSSDVGGYNYVSWYQQHPGKAPKLMIYEGSKRPSGVSNRFSGSKSGNTASLTISGLQAEDEADYYCSSYTTRSTRVFGGGTKLTVLG
B21: I007B03 (scFv)
scFv: GVQLQQSGAEVKKPGSSVKVSCKASGGTFNTSGITWVRQAPGQGLEWMGWMNPNTGDTAYAQEFQGRVIMTRDTSISTAYMELSSLRSEDTAVYYCARDGSYDILTGYYIDNYMDVWGQGTMVTVSSGGGGSGGGGSGGGGSQSVLTQPASVSGSPGQSITISCTGTSSDVGGYNYVSWYQQHPGKAPKLMIYEGSKRPSGVSNRFSGSKSGNTASLTISGLQAEDEADYYCSSYTTRSTRVFGGGTKLTVLG
B22: I008A09 (scFv)
scFv: GVQLVQSGGGVVQPGGSLRLSCAASGFTFSSYGMHWVRQAPGKGLEWVAVISYDGSNKYYADSVKGRFTISRDNSKNTLYLQMNSLRAEDTAVYYCARDREAYYDILTGYYLYYYYMDVWGRGTTVTVSSGGGGSGGGGSGGGGSQSVLTQPASVSGSPGQSITISCTGTSSDVGGYNYVSWYQQHPGKAPKLMIYEGSKRPSGVSNRFSGSKSGNTASLTISGLQAEDEADYYCSSYTTGSTRVFGGGTKLTVLG
B23: I031G08 (scFv)
scFv: QVQLVQSGAEVKKPGSSVKVSCRASGGSFIDDSINWLRQAPGQGLEWVGGTIPLANRANYAQKFRDRATITADELTATVFLELTSLRSDDTALYYCARSSPPKWYDALTGHSSYHSAMDVWGRGTLVTVSSGGGGSGGGGSGGGGSAQSVLTQPPSASGTPGQRVTISCSGTNSNIGGNTVNWYQQLPGTAPRLLIYSNNQRPSGVPDRFSGSKSGTSASLAISGLQSEDEADYYCAARDDRLNAHVVFGGGTKVTVLG

Target: T1, biotinylated B Lymphocyte Stimulator, soluble form (human, UniProt Q9Y275 134-285, biotinylated with NHS-biotin, molar ratio 20:1 biotin:protein)
T1 construct: also called bio-B Lymphocyte Stimulator; free B Lymphocyte Stimulator
Test: phage scFv, receptor binding inhibition on IM9 cells
Experimental: Fifty-five μl of each appropriate phage supernatant was added to each well and the final volume in each well was 65 μl. Plates were then incubated at room temperature for 30 minutes.
Plates were washed three times in PBST and three times in PBS, tapped dry and 50 μl of streptavidin-Delfia (Wallac) was added to each well at 1:1000 dilution in the Manufacturer's assay buffer. The plates were then incubated at room temperature for 1 hour and washed six times in Delfia wash solution (Wallac). After tapping the plates dry, 100 μl per well of Delfia enhancement solution (Wallac) was added. The plates were gently tapped to encourage micelle formation, incubated at room temperature for 10 minutes, and fluorescence read on a Wallac 1420 workstation at […].

binding result	Binder
binds	B1
binds	B2
binds	B3
binds	B4
binds	B5
binds	B6
binds	B7
binds	B8
binds	B9
binds	B10
binds	B11
binds	B12
binds	B13
binds	B14
binds	B15
binds	B16
binds	B17
binds	B18
binds	B19
binds	B20
binds	B21
binds	B22
binds	B23
